Usually Kd stands for a measure of binding affinity in units of concentration.

This passage reports Kd results from PMC9604462, “SAXS Examinations of the Redox-Dependent Formation of a DNA-SOD1 Complex”.

Series [1] has as its target bovine SOD1, rhodamine B labeled (bovine, UniProt P00442 2-152). In words: FRET; 20 mM Tris-HCl pH 7.4; 100 uM DNA, 200 uM SOD1; fitted from kinetic curve; FRET: 20 mM Tris-HCl pH 7.4, 37 C, 2 h; MST: 10 mM PBS pH 7.4, 0.05% Tween, room temperature, 5 min; SAXS: 100 uM bovine SOD1 and dsDNA, buffer not given in material. The note with it: protein: commercial; tags: rhodamine B label; chain copies: 2; blunt.

For series [2], the target named is human Cu/Zn superoxide dismutase SOD1, RED-NHS labeled (human, UniProt P00441 1-154). As to the kind of experiment: MST; 500 nM SOD1; DNA two-fold dilutions from 20 uM; FRET: 20 mM Tris-HCl pH 7.4, 37 C, 2 h; MST: 10 mM PBS pH 7.4, 0.05% Tween, room temperature, 5 min; SAXS: 100 uM bovine SOD1 and dsDNA, buffer not given in material. The note with it: protein: recombinant; tags: N-terminal His tag; RED-NHS dye; chain copies: 2; blunt.
human Cu/Zn superoxide dismutase SOD1, RED-NHS labeled, sequence (P00441 whole entry): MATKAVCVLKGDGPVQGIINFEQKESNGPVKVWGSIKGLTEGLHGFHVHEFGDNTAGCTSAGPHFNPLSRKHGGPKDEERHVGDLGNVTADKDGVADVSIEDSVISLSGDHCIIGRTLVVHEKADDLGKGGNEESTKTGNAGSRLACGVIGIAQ

bovine SOD1, rhodamine B labeled, sequence (P00442 2-152): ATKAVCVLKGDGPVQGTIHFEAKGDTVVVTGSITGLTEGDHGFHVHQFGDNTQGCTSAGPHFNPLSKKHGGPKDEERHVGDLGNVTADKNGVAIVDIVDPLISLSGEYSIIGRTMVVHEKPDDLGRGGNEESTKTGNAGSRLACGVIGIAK

B1: FITC-dsDNA (dsDNA)
DNA 1: ATGGAATGGAAT
DNA 2: ATTCCATTCCAT
Consider B1, for which binding in series [1] was put at a Kd of 105 nM.

B2: dsDNA (dsDNA)
DNA 1: ATGGAATGGAAT
DNA 2: ATTCCATTCCAT
Consider B2, for which the Kd in series [2] stood at 155 nM.
